In PMC4556779 (Redox Biology, 2015):

Target: the molecule itself
Assay: SEC

B1: sulfinylated Myc-Tsa1 (CP-SO2H), from H2O2-exposed cells (enzyme, S. cerevisiae, UniProt P34760 1-196, looked up)
chain: MVAQVQKQAPTFKKTAVVDGVFDEVSLDKYKGKYVVLAFIPLAFTFVCPTEIIAFSEAAKKFEEQGAQVLFASTDSEYSLLAWTNIPRKEGGLGPINIPLLADTNHSLSRDYGVLIEEEGVALRGLFIIDPKGVIRHITINDLPVGRNVDEALRLVEAFQWTDKNGTVLPCNWTPGAATIKPTVEDSKEYFEAANK
modifications: sulfinic acid (CP-SO2H) at the peroxidatic Cys (CP, C48)
  stoichiometry N: ~20
